In the Immune Epitope Database (IEDB):

Tests used:
[1] = molecular target: HLA-A*02:02; assay: IEDB peptide-MHC binding, purified MHC/competitive/radioactivity; filed as Kd, often an IC50 or EC50 that approximates it; ≥ and ≤ were set here for values at or beyond the usual limits of such assays; conditions: source organism: Trypanosoma cruzi
[2] = molecular target: HLA-A*68:02; assay: as above
[3] = molecular target: HLA-A*02:06; assay: as above
[4] = molecular target: HLA-A*02:03; assay: as above; conditions: source organism: Trypanosoma cruzi
[5] = molecular target: HLA-B*51:01; assay: as above
[6] = molecular target: HLA-B*35:01; assay: as above
[7] = molecular target: HLA-B*07:02; assay: as above
[8] = molecular target: HLA-B*45:01; assay: as above
[9] = molecular target: HLA-B*44:03; assay: as above
[10] = molecular target: HLA-B*44:02; assay: as above
[11] = molecular target: HLA-B*18:01; assay: as above
[12] = molecular target: HLA-B*40:02; assay: as above
[13] = molecular target: HLA-B*40:01; assay: as above
[14] = molecular target: HLA-A*01:01; assay: as above; conditions: source organism: Dengue virus 3 Martinique/1243/1999
[15] = molecular target: HLA-A*26:01; assay: as above
[16] = molecular target: HLA-B*51:01; assay: IEDB peptide-MHC binding, purified MHC/competitive/fluorescence; filed as Kd, often an IC50 or EC50 that approximates it; ≥ and ≤ were set here for values at or beyond the usual limits of such assays; conditions: source organism: Listeria monocytogenes serotype 4b str. CLIP 80459
[17] = source organism: Trypanosoma cruzi
[18] = source organism: Dengue virus 1 Brazil/97-11/1997
[19] = source organism: Dengue virus 3 Martinique/1243/1999
[20] = source organism: Dengue virus 2 Jamaica/1409/1983
[21] = source organism: SARS coronavirus Tor2
[22] = source organism: Dengue virus 4 Philippines/H241/1956
[23] = source organism: Mammarenavirus guanaritoense
[24] = source organism: Lymphocytic choriomeningitis virus (strain Armstrong)
[25] = source organism: Mammarenavirus machupoense
[26] = source organism: Mammarenavirus brazilense
[27] = source organism: Mammarenavirus lassaense

Question: Which Kd [1] does the source give for FANYNFTLL here?
Answer: The Kd was 0.0839 nM.

Question: What about the Kd [2, 17] of the same sequence?
Answer: Its Kd is 0.151 nM.

Question: And the Kd [3, 17]?
Answer: Its Kd is 0.122 nM.

Question: And the Kd [4]?
Answer: The Kd was 3.42 nM.

Question: For VPNYNMIIM, which Kd [5, 18] is on record?
Answer: Its Kd is 879 nM.

Question: What about the Kd [6, 18] of the same sequence?
Answer: Its Kd is 13.5 nM.

Question: And the Kd [7, 18]?
Answer: The Kd was 54 nM.

Question: RPISEKEENM was tested. Which Kd [6, 19] did it give?
Answer: Its Kd is 502 nM.

Question: What about the Kd [7, 19] of the same sequence?
Answer: The Kd was 135 nM.

Question: For FSRENSYSGV, which Kd [5, 19] is on record?
Answer: Its Kd is at least 44800 nM.

Question: EAAGIFMTA was tested. Which Kd [2, 20] did it give?
Answer: The Kd was 0.37 nM.

Question: How did the Kd [5, 18] turn out when PPFGESYIV was run?
Answer: Its Kd is 9840 nM.

Question: TPRMCTREE was tested. Which Kd [7, 20] did it give?
Answer: The Kd was 1930 nM.

Question: TEYDGHINL was tested. Which Kd ([8]; source organism: Variola virus) did it give?
Answer: Its Kd is 391 nM.

Question: What about the Kd ([9]; source organism: Variola virus) of the same sequence?
Answer: The Kd was 9880 nM.

Question: What about the Kd ([10]; source organism: Variola virus) of the same sequence?
Answer: The Kd was 58.3 nM.

Question: And the Kd ([11]; source organism: Variola virus)?
Answer: Its Kd is 11.5 nM.

Question: And the Kd ([12]; source organism: Variola virus)?
Answer: The Kd was 0.998 nM.

Question: And the Kd ([13]; source organism: Variola virus)?
Answer: Its Kd is 6.19 nM.

Question: Which Kd [5, 20] does the source give for TALTGATEI here?
Answer: The Kd was 623 nM.

Question: What does the source list for ETMETLLLL?
Answer: Kd [14]: 11500 nM; Kd [2, 19]: 17.4 nM; Kd [15, 19]: 96.4 nM

Question: How did the Kd [8, 21] turn out when FEHIVYGDF was run?
Answer: Its Kd is at least 22300 nM.

Question: What about the Kd [9, 21] of the same sequence?
Answer: Its Kd is 13100 nM.

Question: What about the Kd [10, 21] of the same sequence?
Answer: The Kd was 1870 nM.

Question: What about the Kd [11, 21] of the same sequence?
Answer: The Kd was 1260 nM.

Question: What about the Kd [12, 21] of the same sequence?
Answer: Its Kd is 782 nM.

Question: What about the Kd [13, 21] of the same sequence?
Answer: The Kd was 7140 nM.

Question: With TPPGATDPF as the sequence, how does the Kd [6, 22] read?
Answer: Its Kd is 132 nM.

Question: And the Kd [7, 22]?
Answer: Its Kd is 1070 nM.

Question: LVMLLVHYAI was tested. Which Kd [2, 22] did it give?
Answer: The Kd was 1260 nM.

Question: And the Kd [3, 22]?
Answer: Its Kd is 151 nM.

Question: With FEIDKGIYQT as the sequence, how does the Kd [8, 21] read?
Answer: The Kd was 3100 nM.

Question: And the Kd [9, 21]?
Answer: Its Kd is 11800 nM.

Question: What about the Kd [10, 21] of the same sequence?
Answer: Its Kd is at least 56500 nM.

Question: And the Kd [11, 21]?
Answer: The Kd was 6400 nM.

Question: And the Kd [12, 21]?
Answer: The Kd was 47.3 nM.

Question: What about the Kd [13, 21] of the same sequence?
Answer: Its Kd is 738 nM.

Question: For FTVIALFLA, which Kd [2, 18] is on record?
Answer: Its Kd is 136 nM.

Question: And the Kd [3, 18]?
Answer: Its Kd is 3.16 nM.

Question: Which Kd [8, 23] does the source give for LEREQIPTLI here?
Answer: Its Kd is 9710 nM.

Question: And the Kd [9, 23]?
Answer: The Kd was 12800 nM.

Question: What about the Kd [10, 23] of the same sequence?
Answer: Its Kd is 19600 nM.

Question: What about the Kd [11, 23] of the same sequence?
Answer: Its Kd is at least 57500 nM.

Question: What about the Kd [12, 23] of the same sequence?
Answer: Its Kd is 559 nM.

Question: And the Kd [13, 23]?
Answer: The Kd was 2750 nM.

Question: Which results are given for AEILPDTTY?
Answer: Kd [8, 24]: 1230 nM; Kd [9, 24]: 100 nM; Kd [10, 24]: 97.8 nM; Kd [11, 24]: 1410 nM; Kd [12, 24]: 14000 nM; Kd [13, 24]: 6010 nM

Question: KEPQKPLVL was tested. Which Kd [8, 25] did it give?
Answer: The Kd was at least 70800 nM.

Question: What about the Kd [9, 25] of the same sequence?
Answer: The Kd was at least 23800 nM.

Question: And the Kd [10, 25]?
Answer: Its Kd is 18000 nM.

Question: What about the Kd [11, 25] of the same sequence?
Answer: Its Kd is at least 77500 nM.

Question: And the Kd [12, 25]?
Answer: The Kd was 401 nM.

Question: What about the Kd [13, 25] of the same sequence?
Answer: The Kd was 15800 nM.

Question: With GPLIAGGML as the sequence, how does the Kd [7, 18] read?
Answer: The Kd was 127 nM.

Question: What does the source list for IEELFYSYA?
Answer: Kd [8, 21]: 49.5 nM; Kd [9, 21]: 4600 nM; Kd [10, 21]: 1770 nM; Kd [11, 21]: 3960 nM; Kd [12, 21]: 3060 nM; Kd [13, 21]: 16000 nM

Question: With ESPSKLASAI as the sequence, how does the Kd [2, 20] read?
Answer: The Kd was 74.2 nM.

Question: What about the Kd [15, 20] of the same sequence?
Answer: The Kd was at least 66200 nM.

Question: What does the source list for QEKAPDVGEL?
Answer: Kd [8, 25]: 7030 nM; Kd [9, 25]: ≥ 20900 nM; Kd [10, 25]: 2340 nM; Kd [11, 25]: ≥ 44600 nM; Kd [12, 25]: 1070 nM; Kd [13, 25]: 13000 nM

Question: For CEMNHVNSM, which Kd [8, 26] is on record?
Answer: Its Kd is 214 nM.

Question: And the Kd [9, 26]?
Answer: The Kd was 963 nM.

Question: And the Kd [10, 26]?
Answer: The Kd was 178 nM.

Question: What about the Kd [11, 26] of the same sequence?
Answer: The Kd was 467 nM.

Question: What about the Kd [12, 26] of the same sequence?
Answer: The Kd was 67 nM.

Question: What about the Kd [13, 26] of the same sequence?
Answer: The Kd was 2970 nM.

Question: With TEVVGNVIL as the sequence, how does the Kd [8, 21] read?
Answer: Its Kd is 15100 nM.

Question: And the Kd [9, 21]?
Answer: The Kd was 6820 nM.

Question: What about the Kd [10, 21] of the same sequence?
Answer: The Kd was 15200 nM.

Question: What about the Kd [11, 21] of the same sequence?
Answer: Its Kd is 5870 nM.

Question: What about the Kd [12, 21] of the same sequence?
Answer: Its Kd is 177 nM.

Question: And the Kd [13, 21]?
Answer: Its Kd is 14.9 nM.

Question: For FAIPIAEQI, which Kd [16] is on record?
Answer: Its Kd is at least 20000 nM.

Question: How did the Kd [8, 21] turn out when WEVGKPRPPL was run?
Answer: The Kd was at least 59600 nM.

Question: And the Kd [9, 21]?
Answer: The Kd was 7210 nM.

Question: What about the Kd [10, 21] of the same sequence?
Answer: The Kd was 5920 nM.

Question: What about the Kd [11, 21] of the same sequence?
Answer: The Kd was at least 23900 nM.

Question: And the Kd [12, 21]?
Answer: Its Kd is 18.6 nM.

Question: What about the Kd [13, 21] of the same sequence?
Answer: The Kd was 15.9 nM.

Question: With EIAETQHGTI as the sequence, how does the Kd [2, 20] read?
Answer: The Kd was 101 nM.

Question: Which Kd [2, 18] does the source give for MTCIAVGMV here?
Answer: Its Kd is 7.63 nM.

Question: How did the Kd [2, 22] turn out when TVHADTGCAV was run?
Answer: Its Kd is 86.1 nM.

Question: What does the source list for DEADLDEILL?
Answer: Kd [8, 27]: ≥ 45000 nM; Kd [9, 27]: ≥ 26900 nM; Kd [10, 27]: ≥ 45600 nM; Kd [11, 27]: 1700 nM; Kd [12, 27]: 5930 nM; Kd [13, 27]: 18100 nM
